Earlier results on one substance are cited in paper PMC2953804.

This data set addresses Mlh1 (Saccharomyces cerevisiae) (UniProt P38920).

As to Mlh1 (from UniProt P38920), the dissociation constant Kd (usually the free concentration of one partner at which half of the binding sites on the other are occupied at equilibrium, for simple one-to-one binding) was 3.14 µM.
